T1: Bak (Homo sapiens, UniProt Q16611)
T1 construct: expressed in transfected cells; host or cells: yeast strain EGY191
T1 sequence (Q16611 1-190 limits assumed): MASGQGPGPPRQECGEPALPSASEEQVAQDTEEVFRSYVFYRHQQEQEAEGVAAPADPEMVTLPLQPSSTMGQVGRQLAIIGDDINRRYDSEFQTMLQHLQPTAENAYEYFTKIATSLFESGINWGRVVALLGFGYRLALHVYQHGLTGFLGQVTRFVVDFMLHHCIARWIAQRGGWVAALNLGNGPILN

T2: Bad (Homo sapiens, UniProt Q92934)
T2 construct: expressed in transfected cells; host or cells: yeast strain EGY191
T2 sequence (Q92934 1-168): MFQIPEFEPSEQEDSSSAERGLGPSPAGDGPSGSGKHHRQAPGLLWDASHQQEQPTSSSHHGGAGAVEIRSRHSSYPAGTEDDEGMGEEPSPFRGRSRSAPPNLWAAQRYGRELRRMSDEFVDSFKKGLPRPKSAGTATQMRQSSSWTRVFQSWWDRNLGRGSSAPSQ


Tests used:
Bcl-2 = molecular target: T3, Bcl-2 (Homo sapiens, UniProt P10415); assay: yeast two-hybrid assay, human Bad bait with Bcl-2 prey; type: binding; details: yeast strain EGY191, LexA-Bad bait, B42 prey, FIG. 3
T3 construct: expressed in transfected cells; host or cells: yeast strain EGY191
Excerpt: (§1) To assess whether Bcl-2 family members bind to or otherwise interact with human Bad and to map their binding domains, a yeast two-hybrid system was employed using the above described clones. Briefly, the full length human Bad sequence was subcloned into the yeast 2-hybrid vector pEGE202, or “bait-vector” to express Bad as a fusion protein with the DNA-binding protein LexA (Ruden et al., Nature (1991) 350:426-430). Human Bcl-2, Bcl-X, Bax, Bak and Bad were similarly cloned into the yeast 2-hybrid vector pJG4-5, or “prey-vector” to expressed these Bcl-2 family members as fusion proteins with the transcriptional activator B42 (Gyuris et al., Cell (1993) 75:791-803). Briefly, the full length human Bad sequence was amplified by PCR and subcloned into the bait-vector. For the PCR reaction we used the following primers: 5′ATCAGTGAATTCACTATGTTCCAGATCCCA GAC3′ (SEQ ID NO: 4) and 5′ATCGATCTCGAGTCACTGGGAGGGGGCGGA GCT3′ (SEQ ID NO: 5). […]
(§2) To determine if human Bad binds to any of the above Bcl-2 family members, the Bad-bait plasmid was cotransformed with every prey plasmid and the reporter plasmid p18-34 into the yeast strain EGY191. […] The reaction was stopped with 0.4 M NaOH and the plate was read at an OD 420 nm. Protein-protein interaction was measured as beta-galactosidase activity using the following equation: OD 420:(OD 600×0.1 ml×ONPG reaction time).

Bak = molecular target: T1, Bak; assay: yeast two-hybrid assay, human Bad bait with Bak prey; type: binding; details: yeast strain EGY191, LexA-Bad bait, B42 prey, FIG. 3
Excerpt: as §1, §2

Bad = molecular target: T2, Bad; assay: yeast two-hybrid assay, human Bad bait with Bad prey; type: binding; details: yeast strain EGY191, LexA-Bad bait, B42 prey, FIG. 3
Excerpt: as §1, §2

Bax = molecular target: T4, Bax (Homo sapiens, UniProt Q07812); assay: yeast two-hybrid assay, human Bad bait with Bax prey; type: binding; details: yeast strain EGY191, LexA-Bad bait, B42 prey, FIG. 3
T4 construct: expressed in transfected cells; host or cells: yeast strain EGY191
Excerpt: as §1, §2

Bcl-XL = molecular target: T5, Bcl-XL (Homo sapiens, UniProt Q07817); assay: yeast two-hybrid assay, human Bad bait with Bcl-XL prey; type: binding; details: yeast strain EGY191, LexA-Bad bait, B42 prey, FIG. 3
T5 construct: expressed in transfected cells; host or cells: yeast strain EGY191
Excerpt: as §1, §2

GST-Bcl-XL = molecular target: T6, GST-Bcl-XL (Homo sapiens, UniProt Q07817); assay: ELISA-type binding assay, plate-coated 6HBad with GST-Bcl-XL; details: FIG. 4
T6 construct: made in house; host or cells: E. coli XL1-Blue (pGEX constructs); E. coli BL21 pLysS (6HBad)
Excerpt: To generate fusion proteins for these screening assays, Bad and Bcl-xL were cloned into pET-15b (Novagen) and pGEX 4T1 (Pharmacia) vectors, respectively. The pET15b-bad construct was made as follows. Full length bad cDNA was amplified by PCR using cDNA BM1 as template and primers containing NdeI (5′) and XhoI (3′) restriction sites (5′ primer: 5′-GGGAATTCCATATGTTCCAGATCCCAGAG-3′ (SEQ ID NO: 10)); 3′ primer: 5′-TACAGTCTCGAGTCACTGGGAGGGGGCGGAGCT-3′ (SEQ ID NO: 11)). The PCR product was then digested with NdeI/XhoI and ligated into the NdeI and XhoI sites of pET15b. The above primer sequences were chosen such that the bad ORF sequence would be in frame with 5′ vector sequence encoding a six residue Histidine tag. The final construct was termed pET-15 6H Bad. […]

GST-Bcl-2 = GST-Bcl-2 (Homo sapiens, UniProt P10415); assay: ELISA-type binding assay, plate-coated 6HBad with GST-Bcl-2; details: anti-GST detection, FIG. 4
GST-Bcl-2, sequence (P10415 whole entry): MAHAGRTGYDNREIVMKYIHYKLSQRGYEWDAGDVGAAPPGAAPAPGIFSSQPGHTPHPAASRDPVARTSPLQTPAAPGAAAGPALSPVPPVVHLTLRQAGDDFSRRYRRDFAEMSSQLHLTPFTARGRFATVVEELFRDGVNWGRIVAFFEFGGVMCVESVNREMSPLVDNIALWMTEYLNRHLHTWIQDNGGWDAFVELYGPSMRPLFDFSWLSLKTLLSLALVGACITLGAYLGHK

T6 sequence (Q07817 1-211 limits assumed): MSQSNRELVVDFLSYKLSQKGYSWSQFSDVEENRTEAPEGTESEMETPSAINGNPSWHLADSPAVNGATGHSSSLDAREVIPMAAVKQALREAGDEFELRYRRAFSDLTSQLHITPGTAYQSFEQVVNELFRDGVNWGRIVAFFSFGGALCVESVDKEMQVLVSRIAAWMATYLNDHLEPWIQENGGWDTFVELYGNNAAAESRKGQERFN
T4 sequence (Q07812 1-174 limits assumed): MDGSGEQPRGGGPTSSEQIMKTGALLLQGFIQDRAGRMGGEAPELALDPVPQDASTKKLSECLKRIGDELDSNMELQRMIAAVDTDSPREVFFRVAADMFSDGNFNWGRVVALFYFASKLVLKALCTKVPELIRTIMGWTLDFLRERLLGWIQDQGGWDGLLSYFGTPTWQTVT
T5 sequence (Q07817 1-212 limits assumed): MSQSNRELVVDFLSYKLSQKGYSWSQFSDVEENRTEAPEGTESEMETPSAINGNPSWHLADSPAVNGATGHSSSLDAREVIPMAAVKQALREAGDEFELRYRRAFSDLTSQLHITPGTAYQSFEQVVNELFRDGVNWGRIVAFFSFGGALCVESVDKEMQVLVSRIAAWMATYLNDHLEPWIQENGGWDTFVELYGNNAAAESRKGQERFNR
T3 sequence (P10415 1-218 limits assumed): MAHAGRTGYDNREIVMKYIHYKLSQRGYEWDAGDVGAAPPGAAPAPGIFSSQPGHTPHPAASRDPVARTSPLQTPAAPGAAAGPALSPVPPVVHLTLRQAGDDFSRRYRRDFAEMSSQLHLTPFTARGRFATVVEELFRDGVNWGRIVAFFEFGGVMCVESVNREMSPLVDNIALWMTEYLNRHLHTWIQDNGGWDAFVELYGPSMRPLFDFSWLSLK

Molecule	protein-protein interaction with Bcl-2 (beta-galactosidase activity) (Bcl-2)	protein-protein interaction with Bak (beta-galactosidase activity) (Bak)	protein-protein interaction with itself (beta-galactosidase activity) (Bad)	protein-protein interaction with Bax (beta-galactosidase activity) (Bax)	protein-protein interaction with Bcl-XL (beta-galactosidase activity) (Bcl-XL)	relative binding affinity to GST-Bcl-xL in ELISA (GST-Bcl-XL; compared with GST-Bcl-2 and GST-Bax)	interaction with GST-Bcl-XL in ELISA (GST-Bcl-XL; plate-coated 6HBad, anti-GST detection)	interaction with GST-Bcl-2 in ELISA (GST-Bcl-2)
human Bad: human Bcl-xL/Bcl-2 associated death promoting polypeptide, SEQ ID NO:2, encoded by cDNA clone BM1 (protein, listed as Homo sapiens) MFQIPEFEPSEQEDSSSAERGLGPSPAGDGPSGSGKHHRQAPGLLWDASHQQEQPTSSSHHGGAGAVEIRSRHSSYPAGTEDDEGMGEEPSPFRGRSRSAPPNLWAAQRYGRELRRMSDEFVDSFKKGLPRPKSAGTATQMRQSSSWTRVFQSWWDRNLGRGSSAPSQ	interacts	no interactions were observed	no interactions were observed	no interactions were observed	interacts			
6HBad: full length human Bad with a six residue Histidine tag, expressed from pET-15 6H Bad in E. coli (protein, left off: small tags and cut ends) MFQIPEFEPSEQEDSSSAERGLGPSPAGDGPSGSGKHHRQAPGLLWDASHQQEQPTSSSHHGGAGAVEIRSRHSSYPAGTEDDEGMGEEPSPFRGRSRSAPPNLWAAQRYGRELRRMSDEFVDSFKKGLPRPKSAGTATQMRQSSSWTRVFQSWWDRNLGRGSSAPSQ						highest affinity	interacts	interacts

From patent US6824991B2, “Human bad polypeptides, encoding nucleic acids and methods of use” (IDUN Pharmaceuticals Inc., priority 1996, dated 2004)
